± gives the uncertainty stated by the source.
B1: POU domain, class 3, transcription factor 2, residues 262 to 338; numbered along this chain, P20265 (parent)
chain: EDTPTSDDLEQFAKQFKQRRIKLGFTQADVGLALGTLYGNVFSQTTICRFEALQLSFKNMCKLKPLLNKWLEEADSS

Variants of: B1
Assay: abundance fitness (aPCA) (normalised: wild type 0, dead -1); higher = more abundant; growth selection in yeast, the domain comes from the species named
Conditions: Homo sapiens

Variant	abundance fitness
T45S	-0.013 ± 0.032
T45F	-0.104 ± 0.063
T45I	-0.213 ± 0.057
T45Y	-0.338 ± 0.097
T45E	0.143 ± 0.035
T45C	-0.163 ± 0.047
T45R	-0.005 ± 0.025
T45H	-0.066 ± 0.062
T45N	-0.08 ± 0.064
T45G	-0.097 ± 0.026
T45P	-0.261 ± 0.045
T45K	0.053 ± 0.038
T45L	-0.127 ± 0.033
T45Q	0.005 ± 0.039
L34Q	-0.948 ± 0.15
L34T	-0.742 ± 0.1
L34K	-0.441 ± 0.076
L34Y	-0.895 ± 0.17
L34R	-0.773 ± 0.054
L34W	-0.973 ± 0.1
L34H	-1.2 ± 0.45
L34E	-1.01 ± 0.15
L34S	-0.955 ± 0.093
L34V	-0.329 ± 0.036

Variant	abundance fitness
L34D	-0.76 ± 0.12
L34F	-0.732 ± 0.17
L34C	-0.224 ± 0.05
L34I	-0.132 ± 0.057
L34N	-0.796 ± 0.15
L34A	-0.646 ± 0.068
L34M	-0.035 ± 0.04
L34G	-0.854 ± 0.059
V41H	0.039 ± 0.16
V41R	-0.023 ± 0.033
V41D	0.047 ± 0.069
V41M	0.012 ± 0.068
V41W	0.004 ± 0.045
V41T	0.009 ± 0.053
V41N	0.008 ± 0.079
V41E	0.034 ± 0.038
V41G	0.021 ± 0.029
V41S	-0.017 ± 0.045
V41Y	-0.12 ± 0.092
V41A	0.017 ± 0.039
V41C	0.036 ± 0.065
V41I	-0.157 ± 0.12
V41K	0.065 ± 0.057
V41P	-0.042 ± 0.069

Variant	abundance fitness
T46L	-0.103 ± 0.032
T46W	-0.307 ± 0.039
T46R	-0.376 ± 0.03
T46F	-0.325 ± 0.11
T46A	-0.186 ± 0.03
T46N	-0.393 ± 0.1
T46G	-0.643 ± 0.036
T46I	-0.1 ± 0.053
T46C	-0.317 ± 0.061
T46K	-0.416 ± 0.059
T46Y	-0.547 ± 0.14
T46M	-0.185 ± 0.041
T46E	-0.035 ± 0.037
T46Q	-0.058 ± 0.045
T46V	-0.115 ± 0.031
T46H	-0.208 ± 0.066
T46P	-0.697 ± 0.082
T46D	0.064 ± 0.046
G35Y	-0.155 ± 0.076
G35N	0.008 ± 0.065
G35I	-0.367 ± 0.1
G35H	-0.06 ± 0.065
G35P	-0.612 ± 0.071
G35T	0.052 ± 0.038

Variant	abundance fitness
G35Q	0.025 ± 0.046
G35C	-0.113 ± 0.041
G35R	0.016 ± 0.028
G35V	-0.345 ± 0.035
G35W	-0.239 ± 0.037
G35L	-0.453 ± 0.039
G35D	-0.415 ± 0.06
G35F	-0.183 ± 0.054
G35M	-0.174 ± 0.042
G35S	0.037 ± 0.033
G35A	-0.016 ± 0.033
G35E	-0.076 ± 0.035
N40Q	0.069 ± 0.043
N40C	0.028 ± 0.06
N40M	-0.107 ± 0.051
N40L	-0.173 ± 0.037
N40E	0.108 ± 0.04
N40Y	-0.007 ± 0.084
N40G	0.035 ± 0.032
N40D	0.016 ± 0.059
N40R	0.023 ± 0.035
N40K	-0.016 ± 0.044
N40I	-0.045 ± 0.096
N40F	-0.173 ± 0.08

Variant	abundance fitness
N40S	0.022 ± 0.041
N40W	-0.281 ± 0.049
N40T	-0.063 ± 0.051
N40P	-0.005 ± 0.046
N40A	-0.055 ± 0.038
N40H	0.06 ± 0.085
S43E	-0.031 ± 0.039
S43D	0.093 ± 0.048
S43F	-0.57 ± 0.18
S43L	-0.485 ± 0.049
S43Y	-0.486 ± 0.12
S43C	-0.042 ± 0.05
S43M	-0.569 ± 0.071
S43H	0.007 ± 0.075
S43K	-0.132 ± 0.053
S43I	-0.768 ± 0.19
S43V	-0.703 ± 0.056
S43A	-0.209 ± 0.034
S43G	-0.12 ± 0.028
S43P	-0.102 ± 0.041
S43N	0.01 ± 0.054
S43R	-0.206 ± 0.031
S43Q	-0.166 ± 0.045
S43W	-0.5 ± 0.062

Variant	abundance fitness
T36I	-0.184 ± 0.093
T36G	-0.079 ± 0.027
T36H	0.015 ± 0.059
T36R	0.012 ± 0.027
T36L	-0.194 ± 0.037
T36C	-0.156 ± 0.051
T36A	-0.021 ± 0.033
T36N	0.052 ± 0.066
T36Y	0.026 ± 0.071
T36W	-0.33 ± 0.046
T36Q	-0.038 ± 0.045
T36P	-0.137 ± 0.046
T36M	-0.11 ± 0.042
T36S	0.042 ± 0.036
T36F	-0.342 ± 0.11
T36E	0.056 ± 0.033
R49Y	-0.499 ± 0.12
R49S	-0.175 ± 0.034
R49E	0.026 ± 0.032
R49Q	0.045 ± 0.04
R49D	0.006 ± 0.054
R49G	-0.242 ± 0.027
R49F	-0.694 ± 0.18
R49H	-0.314 ± 0.09

Variant	abundance fitness
R49M	-0.125 ± 0.042
R49V	-0.868 ± 0.073
R49C	-0.691 ± 0.1
R49K	0.05 ± 0.045
L37E	-0.012 ± 0.035
L37Q	-0.027 ± 0.044
L37A	-0.023 ± 0.034
L37W	-0.201 ± 0.033
L37G	-0.328 ± 0.026
L37T	0.048 ± 0.044
L37D	-0.118 ± 0.046
L37F	-0.053 ± 0.076
L37P	-0.293 ± 0.062
L37N	-0.121 ± 0.066
L37H	-0.194 ± 0.072
L37V	-0.042 ± 0.029
L37C	-0.031 ± 0.053
L37I	0.063 ± 0.083
L37S	-0.093 ± 0.037
L37Y	-0.157 ± 0.089
Q44V	-0.098 ± 0.03
Q44D	-0.018 ± 0.042
Q44F	-0.373 ± 0.11
Q44G	0.019 ± 0.025

Variant	abundance fitness
Q44N	-0.133 ± 0.06
Q44L	-0.248 ± 0.039
Q44S	0.008 ± 0.035
Q44M	-0.145 ± 0.042
Q44W	-0.399 ± 0.042
Q44T	-0.018 ± 0.039
Q44H	-0.031 ± 0.069
Q44K	-0.009 ± 0.042
Q44P	0.023 ± 0.044
Q44R	-0.066 ± 0.028
Q44A	0.033 ± 0.031
L32W	-0.015 ± 0.17
L32R	-0.033 ± 0.38
L32S	-0.197 ± 0.14
L32V	-0.448 ± 0.34
E51G	-0.818 ± 0.058
E51I	-0.503 ± 0.14
E51M	-1 ± 0.21
E51V	-0.965 ± 0.09
E51Q	-0.803 ± 0.12
E51L	-1.05 ± 0.14
E51A	-0.855 ± 0.072
E51K	-0.666 ± 0.096
E51R	-0.638 ± 0.049

Variant	abundance fitness
E51S	-0.88 ± 0.096
E51P	-0.795 ± 0.11
E51D	-0.638 ± 0.12
E51Y	-0.999 ± 0.36
E51N	-0.886 ± 0.29
F50A	-0.763 ± 0.065
F50I	-0.675 ± 0.12
F50T	-0.682 ± 0.076
F50R	-0.886 ± 0.055
F50G	-0.839 ± 0.057
F50P	-0.756 ± 0.085
F50Q	-0.624 ± 0.079
F50S	-0.821 ± 0.075
F50M	-0.485 ± 0.063
F50E	-0.85 ± 0.091
F50W	-0.749 ± 0.067
F50Y	-0.412 ± 0.1
F50L	-0.487 ± 0.039
F50K	-0.711 ± 0.1
F50V	-0.682 ± 0.049
F42R	-0.292 ± 0.032
F42S	-0.268 ± 0.045
F42H	-0.138 ± 0.096
F42P	-0.368 ± 0.062

Variant	abundance fitness
F42T	-0.061 ± 0.042
F42L	0.053 ± 0.034
F42Q	0.072 ± 0.042
F42N	-0.582 ± 0.15
F42C	-0.006 ± 0.049
F42A	-0.012 ± 0.034
F42G	-0.397 ± 0.033
F42I	-0.037 ± 0.085
F42M	-0.004 ± 0.047
F42K	-0.148 ± 0.043
F42Y	0.056 ± 0.06
Y38F	-0.036 ± 0.061
Y38L	-0.41 ± 0.043
Y38P	-0.36 ± 0.058
Y38D	-0.036 ± 0.045
Y38N	-0.043 ± 0.051
Y38R	-0.27 ± 0.031
Y38I	-0.298 ± 0.07
Y38K	-0.234 ± 0.05
Y38V	-0.103 ± 0.033
Y38G	-0.074 ± 0.028
Y38E	-0.199 ± 0.038
Y38H	-0.029 ± 0.077
Y38T	0.032 ± 0.039

Variant	abundance fitness
Y38Q	-0.141 ± 0.052
Y38S	-0.012 ± 0.032
Y38W	-0.341 ± 0.044
Y38A	-0.069 ± 0.04
Y38C	-0.065 ± 0.05
Y38M	-0.331 ± 0.052
C48L	-0.152 ± 0.034
C48G	0.022 ± 0.025
C48W	-0.108 ± 0.036
C48D	0.052 ± 0.048
C48I	-0.134 ± 0.061
C48F	-0.2 ± 0.075
C48P	-0.115 ± 0.044
C48A	0.086 ± 0.03
C48V	-0.099 ± 0.026
C48N	-0.071 ± 0.11
C48M	0.059 ± 0.043
C48K	0.066 ± 0.047
C48E	0.085 ± 0.035
C48R	0.004 ± 0.027
C48H	-0.029 ± 0.072
C48S	0.029 ± 0.033
C48T	-0.064 ± 0.037
C48Q	0.134 ± 0.046

Variant	abundance fitness
A52Y	-0.534 ± 0.17
A52C	-0.137 ± 0.065
A52T	-0.02 ± 0.036
A52M	-0.091 ± 0.039
A52D	0.003 ± 0.051
A52L	-0.111 ± 0.037
A52V	-0.615 ± 0.043
A52K	-0.07 ± 0.04
A52E	0.048 ± 0.031
A52H	-0.213 ± 0.1
A52N	0.008 ± 0.062
A52G	-0.078 ± 0.024
A52I	-0.632 ± 0.13
A52R	-0.181 ± 0.029
A52S	0.015 ± 0.033
A52W	-0.552 ± 0.054
A52F	-0.844 ± 0.46
A52Q	0.056 ± 0.04
A33E	-0.172 ± 0.042
A33N	-0.477 ± 0.14
A33T	-0.113 ± 0.068
A33S	-0.091 ± 0.039
A33C	-0.19 ± 0.051
A33M	-0.077 ± 0.041

Variant	abundance fitness
A33Q	0.015 ± 0.042
A33K	-0.264 ± 0.061
A33D	-0.284 ± 0.068
A33R	-0.102 ± 0.031
A33F	-0.329 ± 0.083
A33I	-0.138 ± 0.075
A33H	-0.002 ± 0.075
A33L	-0.304 ± 0.041
A33Y	-0.314 ± 0.087
A33W	-0.021 ± 0.036
G39N	-0.012 ± 0.066
G39P	-0.023 ± 0.046
G39V	-0.897 ± 0.069
G39A	-0.314 ± 0.033
G39M	-0.624 ± 0.074
G39S	-0.321 ± 0.04
G39H	-0.19 ± 0.074
G39I	-0.808 ± 0.21
G39K	-0.219 ± 0.054
G39C	-0.528 ± 0.069
G39T	-0.325 ± 0.047
G39R	-0.25 ± 0.03
G39F	-0.621 ± 0.13
G39E	-0.207 ± 0.036

Variant	abundance fitness
G39L	-0.754 ± 0.076
G39W	-0.715 ± 0.064
G39Y	-0.533 ± 0.16
G39D	-0.079 ± 0.053
I47F	-0.787 ± 0.2
I47H	-0.65 ± 0.16
I47Y	-0.339 ± 0.13
I47E	-0.772 ± 0.074
I47S	-0.782 ± 0.081
I47D	-0.786 ± 0.11
I47K	-0.701 ± 0.085
I47A	-0.751 ± 0.068
I47Q	-0.723 ± 0.094
I47R	-0.689 ± 0.05
I47P	-1.02 ± 0.19
I47G	-1 ± 0.06
I47V	-0.121 ± 0.027
I47N	-0.798 ± 0.23
I47T	-0.636 ± 0.083
I47L	-0.267 ± 0.039
I47C	-0.763 ± 0.097
I47M	-0.58 ± 0.065

Reference: the Human Domainome abundance scans (Beltran et al. 2025)
